Source: patent US20190284293A1, “COMBINATION THERAPY WITH ANTI-CD73 ANTIBODIES” (BRISTOL-MYERS SQUIBB COMPANY, priority 2016, published 2019)
Substitutions are numbered along the chain they refer to.

B1: mAb11-IgG2.3 (protein)
constant: ASTKGPSVFPLAPCSRSTSESTAALGCLVKDYFPEPVTVSWNSGALTSGVHTFPAVLQSSGLYSLSSVVTVPSSNFGTQTYTCNVDHKPSNTKVDKTVERKSCVECPPCPAPPVAGPSVFLFPPKPKDTLMISRTPEVTCVVVDVSHEDPEVQFNWYVDGVEVHNAKTKPREEQFNSTFRVVSVLTVVHQDWLNGKEYKCKVSNKGLPAPIEKTISKTKGQPREPQVYTLPPSREEMTKNQVSLTCLVKGFYPSDIAVEWESNGQPENNYKTTPPMLDSDGSFFLYSKLTVDKSRWQQGNVFSCSVMHEALHNHYTQKSLSLSPGK
modifications: left off: another chain or arm of the molecule
B2: mAb6-IgG2.3 (protein)
constant: B1 constant
modifications: left off: another chain or arm of the molecule
B3: mAb4-IgG2.3 (protein)
constant: B1 constant
modifications: left off: another chain or arm of the molecule
B4: mAb5-IgG2.3 (protein)
constant: B1 constant
modifications: left off: another chain or arm of the molecule
B5: mAb12-IgG2.3 (protein)
constant: B1 constant
modifications: left off: another chain or arm of the molecule
B6: mAb13-IgG2.3 (protein)
constant: B1 constant
modifications: left off: another chain or arm of the molecule
B7: mAb11-IgG2.5 (protein)
constant: B1 constant with C14S, S102C
modifications: left off: another chain or arm of the molecule
B8: mAb7-IgG2.5 (protein)
constant: B1 constant with C14S, S102C
modifications: left off: another chain or arm of the molecule
B9: mAb8-IgG2.5 (protein)
constant: B1 constant with C14S, S102C
modifications: left off: another chain or arm of the molecule
B10: mAb6-IgG2.5 (protein)
constant: B1 constant with C14S, S102C
modifications: left off: another chain or arm of the molecule
B11: mAb4-IgG2.5 (protein)
constant: B1 constant with C14S, S102C
modifications: left off: another chain or arm of the molecule
B12: mAb5-IgG2.5 (protein)
constant: B1 constant with C14S, S102C
modifications: left off: another chain or arm of the molecule
B13: mAb13-IgG2.5 (protein)
constant: B1 constant with C14S, S102C
modifications: left off: another chain or arm of the molecule
B14: mAb7-IgG2.3G1-AY-V27 (protein)
constant: ASTKGPSVFPLAPCSRSTSESTAALGCLVKDYFPEPVTVSWNSGALTSGVHTFPAVLQSSGLYSLSSVVTVPSSNFGTQTYTCNVDHKPSNTKVDKTVERKSCVECPPCPAPELLGGPSVFLFPPKPKDTLMISRTPEVTCVVVDVEHEDPEVKFNWYVDGVEVHNAKTKPREEQYNSTYRVVSVLTVLHQDWLNGKEYKCKVSNKALPAPIEKTISKAKGQPREPQVYTLPPSREEMTKNQVSLTCLVKGFYPSDIAVEWESNGQPENNYKTTPPVLDSDGSFFLYSKLTVDKSRWQQGNVFSCSVMHEALHNHYTQKSLSLSPGK
modifications: left off: another chain or arm of the molecule
B15: mAb7-IgG2.5G1-AY-V27 (protein)
constant: B14 constant with C14S, S102C
modifications: left off: another chain or arm of the molecule
B16: mAb8-IgG2.5G1-AY-V27 (protein)
constant: B14 constant with C14S, S102C
modifications: left off: another chain or arm of the molecule

Target: CD16B-NA2 (FcgRIIIb-NA2) (Homo sapiens, UniProt O75015)
Experiment: SPR, antibody binding to anti-his Fab captured FcgR-his (% Rmax)
Conditions: 1 μM antibody
Method: (§1) The binding of antibodies to Fc gamma receptors (FcγRs or FcgRs) was studied using biosensor technologies including Biacore surface plasmon resonance (SPR) and Fortebio Biolayer Interferometry (BLI). SPR studies were performed on a Biacore T100 instrument (GE Healthcare) at 25° C. The Fab fragment from a murine anti-6×His antibody was immobilized on a CM5 sensor chip using EDC/NHS to a density of −3000 RU. Various his-tagged FcgRs (7 ug/ml) were captured via the C-terminal his-tag using a contact time of 30 s at 10 ul/min, and the binding of 1.0 μM antibody was evaluated in a running buffer of 10 mM NaPO4, 130 mM NaCl, 0.05% p20 (PBS-T) pH 7.1. FcgRs used for these experiments included CD64 (FcgRI), CD32a-H131 (FcgRIIa-H131), CD32a-R131 (FcgRIIa-R131), CD32b (FcgRIIb), CD16a-V158 (FcgRIIIa-V158), CD16b-NA1 (FcgRIIIb-NA1), and CD16B-NA2 (FcgRIIIb-NA2). BLI experiments were performed on a Fortebio Octet RED instrument (Pall, Fortebio) at 25° C. in 10 mM NaPO4, 130 mM NaCl, 0.05% p20 (PBS-T) pH 7.1. Antibodies were captured out of undiluted expression supernatants on protein A coated sensors, followed by the binding of 1 μM hCD32a-H131, hCD32a-R131, hCD32b, hCD16a-V158, or 0.1 μM hCD64 analytes.

Chain of CD16B-NA2 (FcgRIIIb-NA2) (O75015 17-200 limits assumed): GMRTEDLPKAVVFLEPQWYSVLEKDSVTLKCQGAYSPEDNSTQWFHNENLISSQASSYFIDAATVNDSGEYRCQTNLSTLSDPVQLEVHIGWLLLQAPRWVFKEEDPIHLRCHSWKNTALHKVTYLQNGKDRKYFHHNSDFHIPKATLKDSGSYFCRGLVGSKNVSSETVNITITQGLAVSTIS

Molecule	% Rmax hCD16B-NA2 [%]
B1	0
B2	0
B3	0
B4	0
B5	0
B6	0
B7	−1
B8	0
B9	0
B10	0
B11	0
B12	1
B13	−2
B14	7
B15	9
B16	10

Target: CD16a-V158 (FcgRIIIa-V158) (Homo sapiens, UniProt P08637, F176V)
Experiment: as above
Conditions: 1 μM antibody
Method: as §1

Chain of CD16a-V158 (FcgRIIIa-V158) (P08637 17-208 F176V limits assumed): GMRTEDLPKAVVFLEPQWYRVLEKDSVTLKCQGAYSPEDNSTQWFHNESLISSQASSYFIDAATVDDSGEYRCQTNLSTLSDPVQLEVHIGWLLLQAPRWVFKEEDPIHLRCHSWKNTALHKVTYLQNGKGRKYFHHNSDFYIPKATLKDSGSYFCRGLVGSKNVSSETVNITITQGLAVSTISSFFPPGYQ

Molecule	% Rmax hCD16a-V158 [%]
B1	1
B2	1
B3	1
B4	3
B5	1
B6	1
B7	0
B8	2
B9	2
B10	2
B11	1
B12	4
B13	0
B14	26
B15	32
B16	33

Target: T1, CD32a-H131 (FcgRIIa-H131) (Homo sapiens, UniProt P12318)
T1 sequence (P12318 34-217 limits assumed): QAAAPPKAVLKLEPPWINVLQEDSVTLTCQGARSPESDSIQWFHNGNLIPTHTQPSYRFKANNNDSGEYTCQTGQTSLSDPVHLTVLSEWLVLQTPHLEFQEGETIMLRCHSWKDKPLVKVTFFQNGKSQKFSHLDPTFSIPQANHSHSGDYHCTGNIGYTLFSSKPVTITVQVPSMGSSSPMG
Experiment: as above
Conditions: 1 μM antibody
Method: as §1

Molecule	% Rmax hCD32a-H131 [%]
B1	44
B2	66
B3	39
B4	100
B5	39
B6	40
B7	40
B8	72
B9	59
B10	75
B11	46
B12	89
B13	39
B14	68
B15	74
B16	76

Target: T2, CD32a-R131 (FcgRIIa-R131) (Homo sapiens, UniProt P12318, H167R)
T2 sequence (P12318 34-217 H167R limits assumed): T1 sequence (P12318 34-217 limits assumed) with H134R
Experiment: as above
Conditions: 1 μM antibody
Method: as §1

Molecule	% Rmax hCD32a-R131 [%]
B1	17
B2	14
B3	6
B4	30
B5	7
B6	7
B7	13
B8	19
B9	14
B10	17
B11	8
B12	26
B13	4
B14	92
B15	89
B16	79

Target: T3, CD32b (FcgRIIb) (Homo sapiens, UniProt P31994)
T3 sequence (P31994 43-310): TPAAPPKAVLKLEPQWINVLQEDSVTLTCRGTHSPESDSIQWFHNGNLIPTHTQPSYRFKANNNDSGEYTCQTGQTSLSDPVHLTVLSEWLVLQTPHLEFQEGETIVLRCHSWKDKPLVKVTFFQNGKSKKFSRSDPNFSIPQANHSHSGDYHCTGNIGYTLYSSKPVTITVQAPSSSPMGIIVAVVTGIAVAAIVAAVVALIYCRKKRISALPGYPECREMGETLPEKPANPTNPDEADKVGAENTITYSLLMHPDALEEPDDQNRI
Experiment: as above
Conditions: 1 μM antibody
Method: as §1

Molecule	% Rmax hCD32b [%]
B1	5
B2	3
B3	1
B4	4
B5	1
B6	1
B7	3
B8	2
B9	3
B10	4
B11	1
B12	5
B13	−2
B14	76
B15	84
B16	77

Target: CD64 (FcgRI) (Homo sapiens, UniProt P12314)
Experiment: as above
Conditions: 1 μM antibody
Method: as §1

Chain of CD64 (FcgRI) (P12314 16-374): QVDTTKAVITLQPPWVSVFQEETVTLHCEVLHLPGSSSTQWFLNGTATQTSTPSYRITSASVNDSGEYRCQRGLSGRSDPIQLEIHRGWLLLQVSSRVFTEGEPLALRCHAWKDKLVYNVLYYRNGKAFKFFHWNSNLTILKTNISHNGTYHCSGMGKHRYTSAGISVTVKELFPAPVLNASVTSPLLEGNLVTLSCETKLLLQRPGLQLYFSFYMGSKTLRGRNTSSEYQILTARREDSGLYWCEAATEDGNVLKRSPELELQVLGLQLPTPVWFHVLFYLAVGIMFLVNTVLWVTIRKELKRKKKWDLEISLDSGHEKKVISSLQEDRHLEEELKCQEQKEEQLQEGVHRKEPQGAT

Molecule	% Rmax hCD64 [%]
B1	2
B2	3
B3	1
B4	6
B5	2
B6	2
B7	0
B8	4
B9	3
B10	3
B11	2
B12	6
B13	−2
B14	84
B15	81
B16	77
